Source: the supplement of paper PMC10567573

B1: RSPH3 (parent)
chain: MTVKPAKAASLARNLAKRRRTYLG
B2: TRIM35 (parent)
chain: DKELLCCSCQADPRHQGHRVQPVK

Variants of: B1
Assay: protein stability index of a GFP-peptide fusion (GPS, HEK-293T) (PSI 1-6); higher = more stable
Conditions: c terminus: a fixed tail appended
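Further: lentivirally expressed fusions sorted by FACS into six bins by GFP to DsRed ratio, PSI derived from sequencing read proportions per bin multiplied by bin number.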

Protein stability index: each site, then its substitutions
A9: F 2.62, R 2.42, T 3.11, Q 2.77, N 3.58, I 1.79, Y 3.04, H 3.37, M 2.2, P 3.03, D 2.9, L 1.79, E 3.65, S 2.95, V 3.28, K 2.64, G 2.71, C 2.73, W 1.9
R13: A 3.26, E 3.08, D 2.85, C 3.12
S10: A 2.86, I 2.55, T 3.41, G 2.88, D 2.96, F 2.35, H 3.28, P 3.1, R 3.92, C 2.01, Y 2.03, W 2.47, N 2.99, L 3.35, V 3.34, M 2.02, E 2.74, K 2.1
K7: M 2.93, P 3.18, N 3.21, V 2.44, Q 3.88, D 3.25, L 3.62, Y 2.23, T 3.06, H 3.82, A 3.46, R 2.96, E 3.59, I 2.46, W 3.15, C 2.56, G 3.13, S 2.66, F 2.2
V3: F 3.79, M 2.31, E 3.22, S 2.62, H 3.23, A 2.85, K 3.29, T 3.5, Y 2.68, I 3.59, R 2.98, N 3.22, D 3.02, C 3.73, L 2.75
P5: Q 2.63, Y 2.14, R 2.48, C 2.05, M 2.92, I 1.73, W 2.48, G 2.75, A 2.93, N 3.24, K 2.92, E 2.52, H 2.91, T 3.29, V 2.69, S 2.56, D 3.8, F 1.52, L 3.36
A6: K 2.67, F 3.04, P 3.92, H 3.38, I 2.43, Y 2.93, N 2.88, L 1.63, W 1.91, T 2.99, C 2.72, Q 3.58, S 3, E 3.24, G 3.13, V 2.89, D 1.79, R 2.19, M 2.27
A8: V 2.57, N 2.58, S 2.55, D 3.43, Y 2.04, C 2.52, L 2.65, H 2.68, T 2.87, F 2.03, R 2.3, Q 2.5, E 3.25, K 3.23, P 2.04, W 2.46, G 2.4, I 2.17, M 2.62
L11: D 3.46, T 3.36, W 1.83, F 2.19, S 3.29, P 3.68, Q 3.79, K 3.15, C 2.54, A 4, N 3.99, V 3.3, E 4.03, I 2.61, H 3.66, R 2.18, G 3, Y 3.01, M 3.16
T2: S 2.96, H 3.44, F 1.95, P 3.41, W 1.58, N 3.75, R 2.74, G 3.28, M 2.34, Q 2.61, C 2.16, E 2.98, V 2.5, D 2.88, Y 2.36, I 2.45, K 2.81, A 2.69, L 2.17
M1: E 2.46, G 3.28, I 2.15, A 3.34, C 2.71, Q 3.95, D 2.85, H 3.45, Y 2.55, P 3, N 3.88, K 2.33, S 3.02, L 3.36, F 2.35, W 2.31
A12: G 3.21, T 3.28, C 2.87, W 2.09, L 1.34, I 2.69, Y 2.19, V 2.16, Q 3.11, S 2.39, H 2.17, E 2.83, P 2.87, F 1.94, M 2.22, N 2.49, R 3.67, K 3.22, D 3.94
K4: T 3.38, N 2.69, M 3.46, W 2.25, E 2.1, V 2.6, F 2.34, S 3.36, L 2.13, D 2.97, H 3.7, A 2, Q 3.95, C 2.8, Y 2.58, P 2.94, I 1.87

Variants of: B2
Assay: as above
Conditions: c terminus: a fixed tail appended

Protein stability index, by site and new letter:
Q21: E 4.26, A 3.79, D 4.05, W 2.52, G 3.28, M 3.68, Y 2.91, I 2.65, R 3.71, S 3.96, P 3.56, H 3.61, N 4, K 3.74, T 1.96, F 2.79, L 3.15, C 3.92
R19: D 4.79, C 3.63, Y 3.16, G 3.63, F 2.66, W 2.78, E 4.33, Q 3.67, M 3.71, I 3.19, S 3.73, V 3.84, N 3.73, P 3.73, L 3.52, H 3.17, T 3.01, K 3.56, A 3.62
H18: T 3.88, V 2.73, W 4.14
P22: V 2.68, N 3.05, C 4.52, Q 4.04, M 2.73, K 4.08, S 3.08, D 4.11, A 3.97, T 4.03, R 3.4, L 2.84, E 4.53, I 3.04, F 3.44, H 3.31, Y 2.92
V23: T 3.4, W 2.19, G 3.87, S 3.36, E 3.92, K 4.55, D 4.19, C 4, F 3.07, Q 4.13, H 3.23, P 4.06, L 4.02, Y 2.96, I 4.25, N 3.8, A 3.88, M 3.05
K24: F 3.79, D 4.05, W 2.53, I 2.73, S 3.52, N 3.04, Y 2.79, H 3.38, R 2.82, T 3.31, M 3.29, G 3.63, Q 3.77, C 3.18, A 2.87, L 2.65, V 2.92, P 3.46, E 3.81
V20: A 3.13, T 3.5, N 4.13, R 3.5, W 2.76, G 4.15, H 4.69, Q 4.11, E 4.04, K 3.5, Y 3.04, C 4.46, I 3.44, D 4.14, L 3.91, S 3.71, P 4.54, F 3.48
